Patent publication US20140274782A1, “AFFINITY REAGENTS AND METHODS FOR DETECTION, PURIFICATION, AND PROTEOMIC ANALYSIS OF METHYLATED PROTEINS” (The Board of Trustees of the Leland Stanford Junior …, priority 2013, published 2014)
Each block holds one molecule with its values, some of them ahead of it.

Assays:
3×MBT domain of L3MBTL1 = test: Triple SILAC pull-down, 3xMBT/3xMBTD355N ratio (cytoplasmic, nuclear and chromatin fractions of 293T cells); assay type: binding, human; conditions: SILAC ratio, pull-down 3xMBT vs 3xMBTD355N; for 3xMBT/D355N UNC Heavy: experiment with UNC0638 in heavy SILAC media; for 3xMBT/D355N UNC Light: experiment with UNC0638 in light SILAC media;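 as to all read-outs here: proteins quantified with MaxQuant, requiring at least two unique peptides and quantification in both label directions, normalized to the mean of proteins from a digested loading control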
G9a and GLP = molecular target: T1, G9a and GLP (Homo sapiens, UniProt Q96KQ7+Q9H9B1); test: Triple SILAC pull-down after UNC0638 treatment of 293T cells, DMSO/UNC0638 ratio of protein captured by 3×MBT; assay type: cell-based; design: endogenous in cells; host or cells: HEK 293T; conditions: for Relative to UNC0638 UNC Heavy / Relative to UNC0638 UNC Light: SILAC ratio DMSO/UNC0638 of protein pulled down with 3xMBT; for Relative to UNC0638 UNC Heavy: UNC0638 in heavy SILAC media; for Relative to UNC0638 UNC Light: UNC0638 in light SILAC media; for Relative to UNC0638 Average: average of UNC Light and UNC Heavy experiments;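 as to all read-outs here: mass spectrometry (Q-Exactive) SILAC quantitation, DMSO/UNC0638 ratio computed after subtracting 3×MBTD355N mutant pull-down background, only proteins with at least twofold 3×MBT over mutant signal considered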
T1 sequence (Q96KQ7 2-1210 limits assumed): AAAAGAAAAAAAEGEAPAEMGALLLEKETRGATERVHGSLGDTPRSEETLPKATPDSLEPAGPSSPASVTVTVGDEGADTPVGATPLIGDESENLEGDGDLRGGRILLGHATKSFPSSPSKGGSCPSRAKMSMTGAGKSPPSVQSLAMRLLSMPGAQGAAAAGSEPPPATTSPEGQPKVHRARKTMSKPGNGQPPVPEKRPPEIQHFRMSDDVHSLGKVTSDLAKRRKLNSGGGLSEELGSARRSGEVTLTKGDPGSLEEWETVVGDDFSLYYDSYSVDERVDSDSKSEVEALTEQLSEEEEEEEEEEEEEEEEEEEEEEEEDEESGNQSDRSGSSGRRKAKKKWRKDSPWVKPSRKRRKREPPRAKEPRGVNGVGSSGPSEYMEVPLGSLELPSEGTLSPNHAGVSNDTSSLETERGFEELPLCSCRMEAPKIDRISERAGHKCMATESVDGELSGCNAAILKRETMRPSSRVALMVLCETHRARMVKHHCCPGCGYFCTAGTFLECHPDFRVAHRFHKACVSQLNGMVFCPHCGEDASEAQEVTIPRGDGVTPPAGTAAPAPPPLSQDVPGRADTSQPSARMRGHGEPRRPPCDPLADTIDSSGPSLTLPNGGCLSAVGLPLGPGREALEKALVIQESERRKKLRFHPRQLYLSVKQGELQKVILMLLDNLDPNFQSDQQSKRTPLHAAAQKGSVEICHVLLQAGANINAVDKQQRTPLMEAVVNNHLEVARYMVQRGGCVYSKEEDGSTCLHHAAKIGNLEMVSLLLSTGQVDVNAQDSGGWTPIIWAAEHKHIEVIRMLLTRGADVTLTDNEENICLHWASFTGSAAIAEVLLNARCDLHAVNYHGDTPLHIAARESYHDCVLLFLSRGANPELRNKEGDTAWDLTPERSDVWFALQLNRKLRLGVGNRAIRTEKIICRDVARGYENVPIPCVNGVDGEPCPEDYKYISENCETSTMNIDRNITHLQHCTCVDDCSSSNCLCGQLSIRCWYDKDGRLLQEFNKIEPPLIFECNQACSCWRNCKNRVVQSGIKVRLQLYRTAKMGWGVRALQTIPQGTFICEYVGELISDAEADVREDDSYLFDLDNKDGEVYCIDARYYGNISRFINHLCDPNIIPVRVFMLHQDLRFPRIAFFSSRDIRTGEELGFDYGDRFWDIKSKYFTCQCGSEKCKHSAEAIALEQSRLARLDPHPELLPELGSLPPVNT
T1 sequence (Q9H9B1 2-1298 limits assumed): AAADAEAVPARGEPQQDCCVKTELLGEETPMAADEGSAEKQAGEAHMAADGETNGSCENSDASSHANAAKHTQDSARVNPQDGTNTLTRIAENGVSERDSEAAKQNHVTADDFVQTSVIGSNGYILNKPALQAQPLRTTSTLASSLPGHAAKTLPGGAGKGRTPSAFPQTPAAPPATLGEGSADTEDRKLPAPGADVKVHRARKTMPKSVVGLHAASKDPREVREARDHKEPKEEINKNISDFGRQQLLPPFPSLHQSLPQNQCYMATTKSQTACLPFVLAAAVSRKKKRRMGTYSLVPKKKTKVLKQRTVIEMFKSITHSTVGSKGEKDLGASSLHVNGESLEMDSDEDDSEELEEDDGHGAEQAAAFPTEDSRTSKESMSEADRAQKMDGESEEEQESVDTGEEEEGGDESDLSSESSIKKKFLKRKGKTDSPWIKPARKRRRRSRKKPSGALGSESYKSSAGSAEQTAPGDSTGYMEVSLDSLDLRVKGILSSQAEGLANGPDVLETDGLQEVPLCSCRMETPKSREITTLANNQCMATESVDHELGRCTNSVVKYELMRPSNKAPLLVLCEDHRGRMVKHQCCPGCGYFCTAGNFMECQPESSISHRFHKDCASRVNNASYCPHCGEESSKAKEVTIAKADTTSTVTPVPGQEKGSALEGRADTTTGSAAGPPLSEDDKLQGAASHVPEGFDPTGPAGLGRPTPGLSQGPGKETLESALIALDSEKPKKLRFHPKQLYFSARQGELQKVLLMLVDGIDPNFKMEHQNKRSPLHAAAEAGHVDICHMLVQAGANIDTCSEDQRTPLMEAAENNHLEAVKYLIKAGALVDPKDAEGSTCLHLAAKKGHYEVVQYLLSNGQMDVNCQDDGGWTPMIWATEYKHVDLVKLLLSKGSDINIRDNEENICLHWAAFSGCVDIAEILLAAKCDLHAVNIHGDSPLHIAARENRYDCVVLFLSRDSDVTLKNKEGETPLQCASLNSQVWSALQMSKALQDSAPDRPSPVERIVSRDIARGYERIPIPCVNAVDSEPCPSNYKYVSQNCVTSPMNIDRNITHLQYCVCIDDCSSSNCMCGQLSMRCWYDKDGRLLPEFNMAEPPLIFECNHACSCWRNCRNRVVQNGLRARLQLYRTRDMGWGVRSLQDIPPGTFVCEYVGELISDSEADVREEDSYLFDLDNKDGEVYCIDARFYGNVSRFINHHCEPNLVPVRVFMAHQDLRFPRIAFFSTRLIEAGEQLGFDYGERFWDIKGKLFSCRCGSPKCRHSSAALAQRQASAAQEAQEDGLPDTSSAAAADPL

Relative to UNC0638 UNC Heavy (G9a and GLP): 0.17 log base 2 | Relative to UNC0638 UNC Light (G9a and GLP): 0.15 log base 2 | Relative to UNC0638 Average (G9a and GLP): 0.16 log base 2
B1: CPSF1 (protein, UniProt Q10570 1-1443, looked up)
Cleavage and polyadenylation …: MYAVYKQAHPPTGLEFSMYCNFFNNSERNLVVAGTSQLYVYRLNRDAEALTKNDRSTEGKAHREKLELAASFSFFGNVMSMASVQLAGAKRDALLLSFKDAKLSVVEYDPGTHDLKTLSLHYFEEPELRDGFVQNVHTPRVRVDPDGRCAAMLVYGTRLVVLPFRRESLAEEHEGLVGEGQRSSFLPSYIIDVRALDEKLLNIIDLQFLHGYYEPTLLILFEPNQTWPGRVAVRQDTCSIVAISLNITQKVHPVIWSLTSLPFDCTQALAVPKPIGGVVVFAVNSLLYLNQSVPPYGVALNSLTTGTTAFPLRTQEGVRITLDCAQATFISYDKMVISLKGGEIYVLTLITDGMRSVRAFHFDKAAASVLTTSMVTMEPGYLFLGSRLGNSLLLKYTEKLQEPPASAVREAADKEEPPSKKKRVDATAGWSAAGKSVPQDEVDEIEVYGSEAQSGTQLATYSFEVCDSILNIGPCANAAVGEPAFLSEEFQNSPEPDLEIVVCSGHGKNGALSVLQKSIRPQVVTTFELPGCYDMWTVIAPVRKEEEDNPKGEGTEQEPSTTPEADDDGRRHGFLILSREDSTMILQTGQEIMELDTSGFATQGPTVFAGNIGDNRYIVQVSPLGIRLLEGVNQLHFIPVDLGAPIVQCAVADPYVVIMSAEGHVTMFLLKSDSYGGRHHRLALHKPPLHHQSKVITLCLYRDLSGMFTTESRLGGARDELGGRSGPEAEGLGSETSPTVDDEEEMLYGDSGSLFSPSKEEARRSSQPPADRDPAPFRAEPTHWCLLVRENGTMEIYQLPDWRLVFLVKNFPVGQRVLVDSSFGQPTTQGEARREEATRQGELPLVKEVLLVALGSRQSRPYLLVHVDQELLIYEAFPHDSQLGQGNLKVRFKKVPHNINFREKKPKPSKKKAEGGGAEEGAGARGRVARFRYFEDIYGYSGVFICGPSPHWLLVTGRGALRLHPMAIDGPVDSFAPFHNVNCPRGFLYFNRQGELRISVLPAYLSYDAPWPVRKIPLRCTAHYVAYHVESKVYAVATSTNTPCARIPRMTGEEKEFETIERDERYIHPQQEAFSIQLISPVSWEAIPNARIELQEWEHVTCMKTVSLRSEETVSGLKGYVAAGTCLMQGEEVTCRGRILIMDVIEVVPEPGQPLTKNKFKVLYEKEQKGPVTALCHCNGHLVSAIGQKIFLWSLRASELTGMAFIDTQLYIHQMISVKNFILAADVMKSISLLRYQEESKTLSLVSRDAKPLEVYSVDFMVDNAQLGFLVSDRDRNLMVYMYLPEAKESFGGMRLLRRADFHVGAHVNTFWRTPCRGATEGLSKKSVVWENKHITWFATLDGGIGLLLPMQEKTYRRLLMLQNALTTMLPHHAGLNPRAFRMLHVDRRTLQNAVRNVLDGELLNRYLYLSTMERSELAKKIGTTPDIILDDLLETDRVTAHF
3xMBT/D355N UNC Heavy (3×MBT domain of L3MBTL1): 2.44 log base 2 | 3xMBT/D355N UNC Light (3×MBT domain of L3MBTL1): 3.15 log base 2

Relative to UNC0638 UNC Heavy (G9a and GLP): 0.17 log base 2 | Relative to UNC0638 UNC Light (G9a and GLP): 0.16 log base 2 | Relative to UNC0638 Average (G9a and GLP): 0.16 log base 2
B2: KHSRP (protein, UniProt Q92945 2-711, looked up)
Far upstream element-binding …: SDYSTGGPPPGPPPPAGGGGGAGGAGGGPPPGPPGAGDRGGGGPGGGGPGGGSAGGPSQPPGGGGPGIRKDAFADAVQRARQIAAKIGGDAATTVNNSTPDFGFGGQKRQLEDGDQPESKKLASQGDSISSQLGPIHPPPRTSMTEEYRVPDGMVGLIIGRGGEQINKIQQDSGCKVQISPDSGGLPERSVSLTGAPESVQKAKMMLDDIVSRGRGGPPGQFHDNANGGQNGTVQEIMIPAGKAGLVIGKGGETIKQLQERAGVKMILIQDGSQNTNVDKPLRIIGDPYKVQQACEMVMDILRERDQGGFGDRNEYGSRIGGGIDVPVPRHSVGVVIGRSGEMIKKIQNDAGVRIQFKQDDGTGPEKIAHIMGPPDRCEHAARIINDLLQSLRSGPPGPPGGPGMPPGGRGRGRGQGNWGPPGGEMTFSIPTHKCGLVIGRGGENVKAINQQTGAFVEISRQLPPNGDPNFKLFIIRGSPQQIDHAKQLIEEKIEGPLCPVGPGPGGPGPAGPMGPFNPGPFNQGPPGAPPHAGGPPPHQYPPQGWGNTYPQWQPPAPHDPSKAAAAAADPNAAWAAYYSHYYQQPPGPVPGPAPAPAAPPAQGEPPQPPPTGQSDYTKAWEEYYKKIGQQPQQPGAPPQQDYTKAWEEYYKKQAQVATGGGPGAPPGSQPDYSAAWAEYYRQQAAYYGQTPGPGGPQPPPTQQGQQQAQ
3xMBT/D355N UNC Heavy (3×MBT domain of L3MBTL1): 3.34 log base 2 | 3xMBT/D355N UNC Light (3×MBT domain of L3MBTL1): 3.18 log base 2
